Consider one molecule from publication PMC10643670, “Functional and structural diversity in deubiquitinases of the Chlamydia-like bacterium Simkania negevensis” (Nature Communications, 2023).

The test has as its target T1, wild-type Met1-linked di-ubiquitin (UniProt P0CG48 1-76; P0CG48 1-76).
T1 construct: ubiquitin, first moiety of the linear fusion (residues 1-76 of the di-ubiquitin); ubiquitin, second moiety of the linear fusion (residues 77-152 of the di-ubiquitin); In the crystal each di-ubiquitin bridges two SnOTU molecules: residues 1-76 lie in the S1' site of one SnOTU and residues 77-152 in the S1 site of the other; also called linear di-ubiquitin; M1-linked di-ubiquitin; source: expressed …
The test can be described thus: crystal structure; catalytic inactive SnOTU 1-255 and linear di-ubiquitin mixed in a 1:1.1 ratio; sitting drop vapor diffusion, 4 °C; 0.25 M magnesium formate, 20% w/v PEG 3350, 0.02 M EDTA disodium salt. Particulars: both partners purified.

B1: catalytically inactivated (C82A) fragment SnOTU 1-255 (domain or fragment)
chain: MSLPVKERPDAIYTFEGKTYENTSFSKTGIPIVGQPLKMEAYVHKEYTHVTSLEGKRFKSQLEEAAKIYGEQLHEIQGDGNALTTAFATSFLYLLNGNATLIATFDNILIGLDAHKNIPPVRQTIEKLKVKNDLELKQILASNETMFAFSSVIRHLARQKLPELGEPFSLLIDEMVPEEDGKEIEIACIGGLCQLLNICADVIYLRKDYDTFKIERYPNETGKPDLVILRKAAHFLSIILDSKKSIEERTNELGK
notes: resolved from residues 2 to 242 in PDB 8CMR; Amplified from S. negevensis genomic DNA (DSM No.27360), cloned into pOPIN-S; source: E. coli Rosetta (DE3) pLysS, purified (HisTrap FF, tag removal, SEC); not shown: His6, N-terminal, cleaved; Smt3, N-terminal, cleaved
Regarding B1, the binding result is recorded as “binds”.
